Assay results taken from the supplement of paper PMC10567573.

B1: C22orf31 (parent)
chain: YSLELGKAIKQKLWEALCSQGAIS
B2: PSD2 (parent)
chain: LTHFSRRYCQCNPDDSTSEDGIHT

Variants of: B1
Test: protein stability index of a GFP-peptide fusion (GPS, HEK-293T) (PSI 1-6); higher = more stable
Settings: c terminus: a fixed tail appended
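Note: lentivirally expressed fusions sorted by FACS into six bins by GFP to DsRed ratio, PSI derived from sequencing read proportions per bin multiplied by bin number.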

Protein stability index of substitutions, site by site:
I9: D 2.39, T 2.38, N 2.07, F 2.02, E 2.97, Y 3.02
A22: R 3.87
S2: M 2.38, D 1.56, N 2.79, V 1.12, K 2.68, T 2.86, C 2.15, G 2.35, H 2.43, A 1.79, R 2.42
Q20: G 3.45
A16: P 2.3, C 2.24, Q 1.89, E 1.74
L17: P 2.08, H 1.47, N 1.86, M 2.88, C 3.17
Y1: V 2.56, I 3.2, P 2.12, N 2.16, C 2.58
S24: Q 2.92, T 1.83, A 2.68
G21: A 4.53
L3: S 1.75, A 2.39, D 1.38, Y 2.44
E4: W 3.56, I 3.45, V 3.23, F 3.85, Q 3.4
Q11: F 3.62, A 2.47, W 3.82
C18: A 1.69, K 4.02, M 2.12
K12: C 2.03, Q 2.26, R 1.53, N 1.93, Y 1.93, V 2.49, H 1.98
S19: A 4.18, R 2.46
G6: W 3.02, D 1.9, S 1.25, Q 1.98, T 1.86, E 2.03
L13: I 2.33, N 2.63, F 1.13, W 1.94, D 2.37, M 2.17, T 1.88, C 1.35, Q 1.92, P 2.04
I23: N 1.7, S 2.85
K7: E 2.34
L5: P 1.62, Q 1.35, K 2.64, A 1.83
W14: I 3.71, S 1.85, K 2, N 2.21, Q 1.83, G 3.06, E 2.52, L 3.37
E15: C 3, W 1.9, F 3, T 1.64, K 2.73, S 2.19, G 1.31
K10: P 2.27, A 1.52, E 2.55, R 1.15, C 2.31, N 2.54, I 2.95
A8: T 1.97, K 1.61, Q 1.64, H 2.73, W 1.81, E 2.17, F 1.7, S 2.19, I 2.24

Variants of: B2
Test: as above
Settings: c terminus: a fixed tail appended

Protein stability index, by site and new letter:
D20: R 2.27, F 2.69, H 2.99, S 2.42, T 2.86, G 2.71, M 2.65, L 2.31, Q 2.61
L1: V 3.77, H 3.66, F 2.72, P 3.96, E 3.17, I 3.69, W 3.36, T 3.75, S 3.7, M 3.16, A 3.56
T2: F 2.63, I 3.01, H 3.9, S 3.23, Y 2.79, D 4.29, C 2.51, W 2.28, E 4.41, Q 2.87, V 2.24, N 3.74
I22: L 3.24, V 3.71, E 3.87, K 3.12, A 3.91, R 3.22, P 2.9, S 3.87, M 3.49, D 4.27
N12: M 3.52, Q 3.13, P 3.63, K 3.37, I 2.77, A 3.34, V 3.11, G 2.83, F 2.69
D14: G 2.35, T 2.13, P 2.06, W 1.59, Y 1.99, F 2.04, M 2.27, A 2.09, C 2.8, I 2.08, Q 2.54
C11: T 4.31, S 4.61, P 4.41, D 4.31, L 3.65, K 4.52, G 4.56
G21: H 3.34, N 3.33, V 2.79, Q 3.25, F 2.69, C 2.91, L 3.25, D 3.73
H23: M 3.82, K 2.92, I 3.21, E 3.91, P 3.9, N 3.64, S 4.2, W 2.62, G 3.69, R 2.95, V 2.93, Q 3.73, Y 3.58
E19: L 2.15, G 3.03, F 1.94, K 2.81, V 3.33, P 2.37, W 1.87, Y 1.93, A 2.36
F4: C 3.38, L 3.5, H 4.51, D 3.57, T 4.07, E 4.55, S 3.61, Y 2.85, I 3.17
T17: A 3.02, S 2.78, I 2.85, P 3.68, N 3.6, H 3.18, E 3.41, G 2.7, F 2.77
S18: I 2.99, M 2.97, H 3.5, T 2.57, L 2.35, P 3.58, W 2.28, K 2.88, A 3.7, F 2.63
S16: H 2.95, K 3.48, D 3.17, G 3.09, A 2.57, F 2.77, M 2.64
C9: I 3.96, Y 4.06, V 4.13, F 3.83, R 4.1, S 4.78, H 3.84, W 3.57, P 4.64, K 4.39
R7: P 4.46, F 3.26, E 4.43, A 3.3, Y 2.92, L 3.74, T 4.01, C 3.15
T24: H 2.5, D 3.86, P 3.82, N 3.4, A 3.46, K 2.61, L 2.38, M 2.52
R6: I 2.75, A 4.22, S 4.02, C 2.8, G 4.2, V 3.08, F 2.33
H3: S 3.29, P 3.03, V 3.69, K 3.52, F 2.16, I 2.83
D15: K 2.28, G 2.61, R 2.63, S 2.96, A 2.69, I 2.1, Y 3.23, Q 2.35, T 2.79
Y8: L 3.86, M 3.62, A 3.75, D 4.72, K 3.66, V 3.8, I 3.48, F 3.27, N 4.74, Q 3.98
P13: D 4.03, Y 2.44, R 3.19, N 3.38, S 2.84, C 2.73, K 3.02, V 3.11, L 2.71
Q10: P 3.41, F 2.25, D 3.84, M 2.19, N 2.18, V 2.9, E 3.87, T 3.35, A 3.72, W 2.51
S5: F 2.18, P 3.4, V 2.67, G 3.78, Y 2.27, T 3.42, C 2.71, M 2.89
